Data taken from publication PMC5550728, “Retinoschisin Facilitates the Function of L-Type Voltage-Gated Calcium Channels” (Frontiers in Cellular Neuroscience, 2017).

Target: T1, human full-length RS1 fused to the GAL4 DNA binding domain (pBind-RS1) (human, UniProt O15537 1-224)
T1 construct: 224 amino acids), so with its own signal peptide in the construct; source: Cos1 cells, transfected (mammalian two-hybrid fusion)
T1 sequence (looked up): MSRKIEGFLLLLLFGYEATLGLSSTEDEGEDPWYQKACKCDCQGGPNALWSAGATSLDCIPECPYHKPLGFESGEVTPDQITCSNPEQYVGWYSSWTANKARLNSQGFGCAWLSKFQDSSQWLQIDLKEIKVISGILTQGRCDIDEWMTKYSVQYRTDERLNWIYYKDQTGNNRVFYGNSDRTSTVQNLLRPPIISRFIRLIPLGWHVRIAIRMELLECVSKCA
Experiment: two-hybrid; mammalian two-hybrid (luciferase reporter) in Cos1 cells: pBind-RS1 (GAL4 DNA binding domain, bait), pACT-Cav1.4-N terminal (VP16 activation domain), pG5Luc, 100 ng each; controls with empty pBind or pACT; n = 6
Details: partners not purified

relative luciferase activity, fold over the controls: ≥ 4 fold
B1: human Cav1.4 N-terminal fragment fused to the VP16 activation domain (pACT-Cav1.4-N terminal) (domain or fragment)
chain: not shown
notes: the methods give 1-1481 bp from ATG, which is about 493 codons; the exact C-terminal limit follows from the reverse primer; also called hCav1.4-N; source: Cos1 cells, transfected (mammalian two-hybrid fusion)
